Reference: the supplement of paper PMC10724198
± gives the standard deviation of the averaged measurements.

Test system: Saccharomyces cerevisiae
Test: protein stability index of tFT-peptide fusion (C-terminal peptide) (PSI (0-1 scale)); higher = more stable (slower turnover)
Settings: temperature: 30 C
Protocol: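 MPS profiling in S. cerevisiae of the yeast C-terminome library: the last 12 aa of each annotated ORF are fused to the C-terminus of a sfGFP-mCherry timer, after a GGGS linker. Cells are FACS-sorted into 8 mCherry/sfGFP bins and deep-sequenced. PSI runs from 0 (unstable) to 1 (stable); wild type and das1Δ backgrounds, two technical replicates each.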

[1] = genetic background: das1 deletion

| Sequence | protein stability index [1] | protein stability index (genetic background: wild type) |
| --- | --- | --- |
| SQTQAGSAYYTK [YOR268C C-terminal 12 aa] | 0.699 ± 0.026 | 0.688 ± 0.025 |
| SRGQNTHPSVDK [ESC1 C-terminal 12 aa] | 0.699 ± 0.012 | 0.692 ± 0.029 |
| SRIYQTFTDPSN [ADY4 C-terminal 12 aa] | 0.729 ± 0.024 | 0.702 ± 0.061 |
| SRKHTTRSGGRW [HOS3 C-terminal 12 aa] | 0.695 ± 0.017 | 0.6554 ± 0.00091 |
| SSAHMSSNAIQR [CDC10 C-terminal 12 aa] | 0.7077 ± 0.0023 | 0.721 ± 0.016 |
| SSESEAVKKAKS [CIC1 C-terminal 12 aa] | 0.668 ± 0.031 | 0.685 ± 0.062 |
| SSKKTIQEEIYI [DPB2 C-terminal 12 aa] | 0.698 ± 0.015 | 0.741 ± 0.056 |
| SSLARPSLFSSE [YBL077W C-terminal 12 aa] | 0.735 ± 0.026 | 0.714 ± 0.056 |
| SSNEDKKGMCKL [IDP3 C-terminal 12 aa] | 0.736 ± 0.048 | 0.901 ± 0.037 |
| SSNTVYDNILVT [YDR034C-A C-terminal 12 aa] | 0.721 ± 0.037 | 0.724 ± 0.028 |
| SSSEQITSSITS [YAR062W C-terminal 12 aa] | 0.71 ± 0.025 | 0.67 ± 0.008 |
| SSTDMNGQPIEF [SKA1 C-terminal 12 aa] | 0.6884 ± 0.0061 | 0.67 ± 0.015 |
| SSVRTLDSNIWR [ISC10 C-terminal 12 aa] | 0.7128 ± 0.0013 | 0.686 ± 0.024 |
| SSVVSRVSRSCR [YAR060C C-terminal 12 aa] | 0.7343 ± 0.0019 | 0.668 ± 0.043 |
| SSWISKHSSVTD [YDL109C C-terminal 12 aa] | 0.696 ± 0.0068 | 0.6859 ± 0.002 |
| STKFLRSFGQTI [SWP1 C-terminal 12 aa] | 0.70697 ± 0.0003 | 0.686 ± 0.012 |
| STKTVPLNFLFL [YDL050C C-terminal 12 aa] | 0.724 ± 0.01 | 0.677 ± 0.032 |
| STMQERFAESTD [VMA1 C-terminal 12 aa] | 0.682 ± 0.011 | 0.706 ± 0.032 |
| SVENIFMIWFFY [YJL022W C-terminal 12 aa] | 0.5089 ± 0.0034 | 0.494 ± 0.011 |
| SVHPLIISYSQL [TRM732 C-terminal 12 aa] | 0.716 ± 0.05 | 0.637 ± 0.024 |
| SVVSQPPPGYEQ [HSE1 C-terminal 12 aa] | 0.7102 ± 0.0066 | 0.667 ± 0.02 |

| Sequence | protein stability index [1] | protein stability index (genetic background: wild type) |
| --- | --- | --- |
| SVYQPFFALCGL [YDR355C C-terminal 12 aa] | 0.6756 ± 0.0066 | 0.645 ± 0.017 |
| SYRLGKNAAEGK [CAP1 C-terminal 12 aa] | 0.685 ± 0.017 | 0.663 ± 0.025 |
| TAPLGKALHDLS [REE1 C-terminal 12 aa] | 0.687 ± 0.059 | 0.72 ± 0.059 |
| TASQILKFEGRI [GRE2 C-terminal 12 aa] | 0.718 ± 0.035 | 0.695 ± 0.057 |
| TEAMNSEIDGTK [ATG16 C-terminal 12 aa] | 0.686 ± 0.017 | 0.703 ± 0.042 |
| TFELVMRFLGEE [YMC2 C-terminal 12 aa] | 0.709 ± 0.0094 | 0.669 ± 0.0095 |
| TFQKAQVEAEWV [TOA1 C-terminal 12 aa] | 0.70901 ± 0.00064 | 0.692 ± 0.027 |
| TFTLAVTPYPAF [YLL066W-B C-terminal 12 aa] | 0.715 ± 0.013 | 0.6847 ± 0.0036 |
| TGNGPNLDNLKY [ARA1 C-terminal 12 aa] | 0.722 ± 0.0074 | 0.641 ± 0.019 |
| TGWPTGLRHQHT [YER133W-A C-terminal 12 aa] | 0.7212 ± 0.0034 | 0.695 ± 0.011 |
| TKKLLRDYFSQF [SMN1 C-terminal 12 aa] | 0.712 ± 0.0096 | 0.188 ± 0.014 |
| TKMFPAHSHVLW [THP1 C-terminal 12 aa] | 0.716 ± 0.032 | 0.72 ± 0.014 |
| TLGLLCLIFGLP [YOR277C C-terminal 12 aa] | 0.482 ± 0.0081 | 0.499 ± 0.018 |
| TLLNAQKEALKK [APT1 C-terminal 12 aa] | 0.6698 ± 0.0014 | 0.684 ± 0.03 |
| TLSKEPFLVFSF [YDL185C-A C-terminal 12 aa] | 0.499 ± 0.026 | 0.494 ± 0.025 |
| TMSLLKRNPRNH [TRM44 C-terminal 12 aa] | 0.704 ± 0.02 | 0.683 ± 0.032 |
| TNEWCLFTPDSP [MLH2 C-terminal 12 aa] | 0.744 ± 0.018 | 0.7355 ± 0.005 |
| TNMSSVSAFISR [PTK2 C-terminal 12 aa] | 0.718 ± 0.0017 | 0.713 ± 0.013 |
| TNQPVNENNDLK [SNF3 C-terminal 12 aa] | 0.667 ± 0.013 | 0.629 ± 0.0078 |
| TPHNHNQNQHTN [RSF1 C-terminal 12 aa] | 0.72 ± 0.029 | 0.706 ± 0.03 |
| TPSSVQSSPKRA [ZRG8 C-terminal 12 aa] | 0.696 ± 0.017 | 0.668 ± 0.0075 |

| Sequence | protein stability index [1] | protein stability index (genetic background: wild type) |
| --- | --- | --- |
| TPTCQDPSLTEV [YJR038C C-terminal 12 aa] | 0.7253 ± 0.0048 | 0.6895 ± 0.0068 |
| TSLGLTRTTIIP [CDC4 C-terminal 12 aa] | 0.685 ± 0.021 | 0.6778 ± 0.0043 |
| TSPIGEFQSIKH [SPT21 C-terminal 12 aa] | 0.731 ± 0.015 | 0.674 ± 0.037 |
| TSQEINDRLEAL [PRE8 C-terminal 12 aa] | 0.666 ± 0.027 | 0.643 ± 0.0082 |
| TSSQKIYHTSNK [IPK1 C-terminal 12 aa] | 0.686 ± 0.05 | 0.672 ± 0.049 |
| TVDYIASNPDAN [ACP1 C-terminal 12 aa] | 0.696 ± 0.0025 | 0.736 ± 0.038 |
| TVGIHSPIDEKC [ATG4 C-terminal 12 aa] | 0.699 ± 0.013 | 0.669 ± 0.015 |
| TVVDARIDGRGK [PHB2 C-terminal 12 aa] | 0.6724 ± 0.0014 | 0.708 ± 0.045 |
| TYSEREGNLLNS [RPR2 C-terminal 12 aa] | 0.7159 ± 0.0046 | 0.675 ± 0.0073 |
| VASLPSRYSRYD [ALR1 C-terminal 12 aa] | 0.711 ± 0.024 | 0.654 ± 0.013 |
| VDKLAGVRVLPV [GOT1 C-terminal 12 aa] | 0.67 ± 0.01 | 0.704 ± 0.019 |
| VEKKKVLSKITL [VPH2 C-terminal 12 aa] | 0.691 ± 0.033 | 0.691 ± 0.048 |
| VESTRETGGCNC [YPT53 C-terminal 12 aa] | 0.692 ± 0.027 | 0.65486 ± 0.00056 |
| VFQRAIEKALGE [STR2 C-terminal 12 aa] | 0.707 ± 0.011 | 0.716 ± 0.013 |
| VFSKKEPFPHSK [YJR084W C-terminal 12 aa] | 0.721 ± 0.019 | 0.771 ± 0.059 |
| VGITSVGTRGNY [YNL140C C-terminal 12 aa] | 0.674 ± 0.015 | 0.717 ± 0.097 |
| VGNYFMAIQRLN [COQ3 C-terminal 12 aa] | 0.731 ± 0.025 | 0.16 ± 0.017 |
| VIASDESSHLSY [YHR127W C-terminal 12 aa] | 0.709 ± 0.017 | 0.699 ± 0.024 |
| VKDLYKRLTIQA [GPI1 C-terminal 12 aa] | 0.518 ± 0.018 | 0.0975 ± 0.0091 |
| VKHAEYAINAFF [YPR147C C-terminal 12 aa] | 0.709 ± 0.018 | 0.682 ± 0.026 |
| VKHQPKTYRTKK [SGO1 C-terminal 12 aa] | 0.676 ± 0.015 | 0.677 ± 0.053 |

| Sequence | protein stability index [1] | protein stability index (genetic background: wild type) |
| --- | --- | --- |
| VKRNKYPPRPVH [REF2 C-terminal 12 aa] | 0.704 ± 0.023 | 0.74 ± 0.0081 |
| VKSDSGSSCTIM [RHO3 C-terminal 12 aa] | 0.721 ± 0.011 | 0.711 ± 0.023 |
| VKTKFFPLSSSI [YDR199W C-terminal 12 aa] | 0.738 ± 0.02 | 0.716 ± 0.026 |
| VKWKVLCDLGWT [YIL047C-A C-terminal 12 aa] | 0.715 ± 0.023 | 0.708 ± 0.028 |
| VKYSRIIPPDIR [SUM1 C-terminal 12 aa] | 0.72 ± 0.017 | 0.69 ± 0.032 |
| VLDEEFRNNNAS [RAD26 C-terminal 12 aa] | 0.716 ± 0.0098 | 0.69 ± 0.038 |
| VLELSLGFTKLD [MON2 C-terminal 12 aa] | 0.7141 ± 0.0071 | 0.707 ± 0.041 |
| VLFLEDNGFFVF [MET3 C-terminal 12 aa] | 0.765 ± 0.024 | 0.775 ± 0.037 |
| VLIKHDHTNTHI [MMT1 C-terminal 12 aa] | 0.703 ± 0.028 | 0.701 ± 0.034 |
| VMEEEEQDCKCI [POP8 C-terminal 12 aa] | 0.6923 ± 0.00099 | 0.6519 ± 0.0055 |
| VMGQFLPIFEMD [GSM1 C-terminal 12 aa] | 0.724 ± 0.031 | 0.713 ± 0.0046 |
| VRILTKYPKILV [RIM101 C-terminal 12 aa] | 0.488 ± 0.021 | 0.5 ± 0.0066 |
| VSGKKFQNVRVL [YPL247C C-terminal 12 aa] | 0.705 ± 0.01 | 0.676 ± 0.04 |
| VSLDNLPGVEKK [SUA7 C-terminal 12 aa] | 0.682 ± 0.022 | 0.683 ± 0.014 |
| VSLLLNSLALFF [YGL204C C-terminal 12 aa] | 0.688 ± 0.021 | 0.6623 ± 0.0058 |
| VSNLEVLEELFP [DPI35 C-terminal 12 aa] | 0.722 ± 0.015 | 0.7123 ± 0.0038 |
| VTEAESTASAST [BUD20 C-terminal 12 aa] | 0.7 ± 0.013 | 0.6926 ± 0.006 |
| VVEKVSSITNRN [SRF1 C-terminal 12 aa] | 0.6869 ± 0.0056 | 0.669 ± 0.065 |
| VVPAVLFAFLLV [YDL118W C-terminal 12 aa] | 0.446 ± 0.0098 | 0.4 ± 0.0053 |
